Patent US20190276499A1, “Protein VII Fragments and Methods of Use Thereof for the Treatment of Inflammatory Disorders” (priority 2016, published 2019)

Assays:
cellular chromatin = assay: Chromatin appearance in inducible cell lines (immunofluorescence, DAPI); assay type: cell-based; details: inducible expression
Description: Primary small airway epithelial cells (SAECs), U2OS, HeLa, 293, THP-1 and A549 cells were obtained from the American Tissue Culture Collection (ATCC) and grown according to the provider's instructions. Acceptor cells for generation of inducible cell lines were used as reported (Khandelia et al. (2011) Proc. Natl. Acad. Sci., 108:12799-12804). Protein VII, preVII and V were cloned from genomic DNA isolated from HeLa cells infected with adenovirus type 5 and inserted into the inducible plasmid cassette with a C-terminal HA tag using restriction enzymes BsrGI and AgeI. Positive clones were selected in DH5a cells, sequenced, and transfected into A549, U2OS or HeLa acceptor cells along with plasmid expressing the Cre recombinase. Recombined clones were selected by puromycin resistance (1 μg/mL) and induced with doxycycline (0.2 μg/mL) to express the desired protein. Protein expression was verified by immunofluorescence and western blot. All figures shown are after 4 days of induction unless otherwise stated. Protein VII and preVII were also verified by HPLC purification and mass spectrometry analysis. Point mutations were generated by gene synthesis from Genewiz.
Cells were grown on glass coverslips in 24-well plates and either infected or induced with doxycycline (0.2 μg/mL). […]

HMGB1 [1] = target: T1, HMGB1 (Homo sapiens, UniProt P09429); assay: In vitro binding assay: recombinant protein VII-His with HMGB1-GST, cobalt resin pull-down; details: equimolar HMGB1-GST and protein VII-His
T1 sequence (P09429 1-215): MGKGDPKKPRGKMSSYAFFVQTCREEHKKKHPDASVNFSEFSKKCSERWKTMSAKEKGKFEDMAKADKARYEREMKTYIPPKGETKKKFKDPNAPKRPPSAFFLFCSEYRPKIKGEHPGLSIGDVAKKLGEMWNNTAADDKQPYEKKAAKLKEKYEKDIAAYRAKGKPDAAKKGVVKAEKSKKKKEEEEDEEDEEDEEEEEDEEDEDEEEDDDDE
Protocol: HMGB1-GST (Abnova) or GST (Sigma) were combined with recombinant protein VII-His at equimolar ratios and incubated at 4° C. for 1 hour. Complexes were then mixed with a cobalt resin (ThermoScientific 89964) to bind protein VII-His and any associated protein and washed three times in the binding buffer (50 mM Tris pH 8, 300 mM NaCl, 0.1% IGEPAL). The beads were then boiled in sample buffer, separated on a 4-12% NuPage gel and visualized by coomassie staining.

DNA = assay: Gel shift of recombinant protein VII-His with 195 bp DNA; assay type: binding; details: purified recombinant protein
Protocol: Gel shift and MNase digestion assays were carried out as described (Falk et al. (2015) Science 348:699-703; Hasson et al. (2013) Nat. Struct. Mol. Biol., 20:687-695; Sekulic et al. (2010) Nature 467:347-351). Briefly, nucleosomes were reconstituted by incubating purified recombinant histones with ‘601’ DNA of either 195 or 147 bp over a series of dialysis. Recombinant protein VII-His was then combined with nucleosomes at various molar ratios, incubated at room temperature for 15 minutes, and analyzed by native gel electrophoresis. Complexes were also digested with MNase (Affymetrix) by addition of 1 unit per μg of DNA for 147 bp nucleosome experiments and 0.1 unit per μg of DNA for 195 bp nucleosome experiments, incubated at 22° C. for varying amounts of time followed by the addition of EGTA and guanidine thiocyanate to stop the reaction. The DNA fragments were then purified using a MinElute PCR purification kit (Qiagen) and analyzed on an Agilent 2100 Bioanalyzer as described (Falk et al. (2015) Science 348:699-703).

mouse HMGB1 = target: T2, mouse HMGB1 (Mus musculus, UniProt P63158); assay: Mouse embryonic fibroblast (MEF) cells transduced to express protein VII-GFP: immunofluorescence and salt fractionation; assay type: cell-based
T2 construct: endogenous in cells; host or cells: mouse embryonic fibroblasts (MEF)
T2 sequence (P63158 1-215): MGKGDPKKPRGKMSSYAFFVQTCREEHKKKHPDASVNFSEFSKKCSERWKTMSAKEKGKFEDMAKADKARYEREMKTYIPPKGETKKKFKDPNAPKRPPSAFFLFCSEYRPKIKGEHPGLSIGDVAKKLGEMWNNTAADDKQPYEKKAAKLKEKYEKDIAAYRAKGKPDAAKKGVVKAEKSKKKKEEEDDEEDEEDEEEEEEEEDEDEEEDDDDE
Protocol: Cells were grown on glass coverslips in 24-well plates and either infected or induced with doxycycline (0.2 μg/mL). Cells were harvested for immunofluorescence at the indicated time points, washed in phosphate-buffered saline (PBS), fixed in 4% paraformaldehyde for 15 minutes and post-fixed with 100% ice-cold methanol for 5 minutes. Coverslips were then blocked and stained as described (Lilley et al. (2011) PLoS Pathog., 7:e1002084) and mounted using ProLong Gold Antifade Reagent (Life Technologies). Immunofluorescence was visualized using a Zeiss LSM Confocal microscope and ZEN 2011 software. Images were processed using ImageJ and assembled with Adobe CS6. All scale bars show in the Figures are 10 μm unless otherwise stated.
Salt fractionation of nuclei was adapted from established protocols (Zaret, K. (2005) Micrococcal nuclease analysis of chromatin structure. Curr. Protoc. Mol., Biol. Chapter 21, Unit 21.1; Teves et al. (2012) Methods Mol. Biol., 833:421-432). […] The final pellet was resuspended in 400 μL ddH2O and all samples were analyzed together by western blot. An aliquot of each supernatant was set aside for DNA purification using a PCR purification kit (Qiagen) and analyzed by agarose gel electrophoresis. […]

LPS induced lung injury = assay: Murine model of LPS induced lung injury, BAL fluid analysis; assay type: in vivo, mouse; details: 24 hours after LPS exposure, versus mice expressing GFP
Protocol: All mice were housed in SPF conditions. All studies in mice were carried out in accordance with the recommendations in the Guide for the Care and Use of Laboratory Animals of the National Institutes of Health. C57BL/6J male mice aged 8-10 weeks were used for experiments. Mice were sedated with ketamine and xylazine. Once sedated, mice underwent orotrachial intubation, as described (Das et al. (2013) J. Vis. Exp., (73):e50318), with a 20G angiocatheter from BD (Franklin Lakes, N.J.). Mice subsequently received 5e10 GC of recombinant adenovirus expressing VII-GFP or GFP purified as described above. Four days after infection, mice were exposed to aerosolized LPS, 3 mg/mL for 30 minutes as described (Jeyaseelan et al. (2004) Infect. Immun., 72:7247-7256). One day after LPS exposure, BAL, and lung tissue were harvested as detailed (Nick et al. (2000) J. Immunol., 164:2151-2159) and examined for HMGB1 content (ELISA, Chondrex 6010) and neutrophil count (hematoxylin and eosin stain kit EMD 65044/93). Immunostaining was carried out using standard methods. A minimum of four biological replicates were used for each condition studied. Mice were assigned a random number and color at the start of the experiment and were randomized. Technicians carrying out the experiments were blinded to the identity of the samples. Tissue samples were assigned a random study number such that the technician performing the analysis was blinded. Unblinding for the purpose of data analysis occurred only after all data had been collected.

HMGB1 [2] = target: T1, HMGB1; assay: Release assay of HMGB1 in THP-1 cells; assay type: cell-based; set-up: endogenous in cells; details: PMA-treated THP-1 cells, LPS plus nigericin
Protocol: (§1) THP-1 cells were seeded at a density of 2×10^5 cells per well in a 24-well plate, and stimulated into macrophage-like cells by addition of 10 ng/mL PMA for 48 hours. Cells were washed in PBS and transduced with recombinant adenovirus vectors expressing only GFP or protein VII-GFP such that >90% of cells were GFP positive. At 48 hours post transduction, cells were washed and 200 μL of serum free RPMI was added. To stimulate the inflammasome, LPS (Sigma-Aldrich L2880) with a final concentration of 0.5 μg/mL was added to wells and incubated for 2 hours, then nigericin (Sigma-Aldrich N7143) was added with a final concentration of 10 μM for 1 hour. Supernatants were collected and proteins precipitated overnight at 4° C. with a final concentration of 20% trichloroacetic acid (Sigma), washed with acetone, dried, and resuspended in 1×sample buffer with reducing agent (Invitrogen). For ELISA analysis, supernatants were harvested directly and HMGB1 content was detected by the manufacturer's instructions (Chondrex 6010). Cells were also harvested by the addition of 1×sample buffer with reducing agent (Invitrogen) and boiled. Supernatants and lysates were analyzed together by western blot.

HMGB2 = target: T3, HMGB2 (Homo sapiens, UniProt P26583); assay: Release assay of HMGB2 in THP-1 cells; assay type: cell-based; details: PMA-treated THP-1 cells, LPS plus nigericin
T3 construct: endogenous in cells; host or cells: THP-1 (PMA-differentiated)
T3 sequence (P26583 1-209): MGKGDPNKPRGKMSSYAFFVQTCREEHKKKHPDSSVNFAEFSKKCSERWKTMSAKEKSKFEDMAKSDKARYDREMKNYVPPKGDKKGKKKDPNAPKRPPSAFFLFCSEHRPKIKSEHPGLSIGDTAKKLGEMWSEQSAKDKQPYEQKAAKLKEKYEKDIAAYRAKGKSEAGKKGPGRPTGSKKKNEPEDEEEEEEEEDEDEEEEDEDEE
Protocol: as §1

PRM1: human protamine PRM1, a basic protein involved in sperm DNA compaction (ARYRCCRSQSRSRYYRQRQRSRRRRRRSCQTRRRAMRCCRPRYRPRCRRH; UniProt P04553 2-51, looked up) [reference compound]
Effect on chromatin appearance (cellular chromatin): did not affect chromatin appearance

B1: recombinant protein VII: Ad5 protein VII with C-terminal hexahistidine tag, purified from E. coli (protein)
chain: AKKRSDQHPVRVRGHYRAPWGAHKRGRTGRTTVDDAIDAVVEEARNYTPTPPPVSTVDAAIQTVVRGARRYAKMKRRRRRVARRHRRRPGTAAQRAAAALLNRARRTGRRAAMRAARRLAAGIVTVPPRSRRRAAAAAAAAISAMTQGRRGNVYWVRDSVSGLRVPVRTRPPRN
modifications: left off: small tags and cut ends
notes: Ad5 protein VII with C-terminal hexahistidine tag, purified from E. coli
Direct binding of recombinant protein VII to HMGB1 in vitro (HMGB1 [1]): Direct binding
DNA binding (DNA): binds to DNA

B2: protein VII-GFP (protein)
chain: AKKRSDQHPVRVRGHYRAPWGAHKRGRTGRTTVDDAIDAVVEEARNYTPTPPPVSTVDAAIQTVVRGARRYAKMKRRRRRVARRHRRRPGTAAQRAAAALLNRARRTGRRAAMRAARRLAAGIVTVPPRSRRRAAAAAAAAISAMTQGRRGNVYWVRDSVSGLRVPVRTRPPRN
modifications: left off: large carriers
Relocalization of mouse HMGB1 (mouse HMGB1): sufficient to relocalize mouse HMGB1
Retention of mouse HMGB1 in the high salt fraction (mouse HMGB1): sufficient to retain mouse HMGB1 in the high salt fraction
HMGB1 in BAL fluid (LPS induced lung injury): decreases HMGB1
Neutrophils in BAL fluid (LPS induced lung injury): significantly fewer
HMGB1 in supernatants (HMGB1 [2]): sufficient to inhibit HMGB1 and HMGB2 release
HMGB2 in supernatants (HMGB2): sufficient to inhibit HMGB1 and HMGB2 release
